In PMC2723119, “A new cold-adapted β-D-galactosidase from the Antarctic Arthrobacter sp. 32c – gene cloning, overexpression, purification and properties” (BMC Microbiology, 2009):

Substrate: O=[N+]([O-])c1ccccc1O[C@@H]1O[C@H](CO)[C@H](O)[C@H](O)[C@H]1O
Assay: purified protein
Format: biochemical, Arthrobacter sp.
Details: 50 °C (optimum; also at 10, 20, 30, 40, 55 °C), pH 6.5, 0.02 M potassium phosphate

B1: Arthrobacter sp. 32c β-D-galactosidase (Arthrobacter sp.) (protein)
chain: MGKRFPSGWFSPRVHPPRRQRSPMTNQATPGTASVWNNIEGIGFGGDYNPEQWPVSVRLEDLELMQEAGVNFLSVGIFSWALLEPAEGQYDFGWLDDVMDNLHGIGVKVALATATAAPPAWLVRKHPEILPVTADGTTLGPGSRRHYTPSSAVYRKYAAGITRVLAERYKDHPALALWHVDNELGCHVSEFYGEEDAAAFRLWLERRYGTIDALNAAWGTAFWSQHYGSFEEILPPGVAPSTLNPGQQLDFQRFNSWALMDYYRSLVAVLREVTPAVPCTTNLMASSATKSMDYFSWAKDLDVIANDHYLVAADPERHIELAFSADLTRGIAGGDPWILMEHSTSAVNWQPRNQPKMPGEMLRNSLAHVARGADAVMFFQWRQSFAGSEKFHSAMVPHGGRDTRVWREVVDLGAALQLLAPVRGSRVESRAAIVFDYEAWWASEIDSKPSIDVRYLDLLRAFHRSLFLRGVSVDMVHPSASLDGYDLVLVCTLYSVTDEAAANIAAAAAGGATVLVSYFSGITDEKDHVRLGGYPGAFRELLGVRVEEFHPLLAGSQLKLSDGTVSSIWSEHVHLDGAEAFQTFTGYPLEGVPSLTRRAVGTGAAWYLATFPDRDGIESLVDRLLAESGVSPVAEADAGVELTRRRSADGGSFLFAINHTRAAASVRASGTDVLSGERFTGTVEAGSVAVIAED
notes: full length, recombinant, no tag apparent (own stop codon in reverse primer); starts MGKRFPS (from primer)
For B1, the Km was 2620 ± 210 µM, the kcat was 212.4 ± 1.67 s⁻¹ and the kcat/Km was 81100 ± 7760 M⁻¹ s⁻¹.
